Data on 19 sequences can be found in the DeepSol protein solubility set.

A short description of this data set: soluble on expression in E. coli; label from the status in PepcDB or PDB records.
Turning to “MDPLEALQKHVQRPEEFPLREVTVSGISYVAFGDYAYKKDTETSLQIYGKSDEFYSLESLVVFLKYSHENHGVYVKEAAAAGVRAVTRIDRKNVTEYLQGDRTDFPALMNQVNPLSLRQLLHSSEPEAKKPRLDGEAAGEPMDTSTSAEICSKIPIFLKINSIFFPDEPQESAVSAAKKEVEIRALNDNLTKDRIAEMRRKRQSHREKGIVTIETTFPQKPDFLIKKFQFFSESLSTLTSASLPKTRIHKTRENVMLGARDLSNVLDIITSAQRQWDLNEKKEKVAAVHATNLSKDQSGAAGGQQQRSGYSRYAQEAFAHEKTKEIQTEGSFIGSNFSSIKQGHHAVQKAPDAPPGRPPLAKPIQLLTSSTATSSGSSAAQNGSKRTSRSPIIIVPSAMNTMINLYNVRDILQNFSYVPVDQRRKETNKKPVDLAIQRQKNGVTYNIRVIDNAEKLANDDWDRVIAVFVMGVAWQFKGWKWNGNPTDIFTHIPAFHFHVDQDKPVAQVMQWNVHKIPVSATKRHMDKARFSQVWETIENFVRKNKPHLTARLGL”, the “soluble on expression in E. coli” value is “not soluble”.

On to “MDPLLTLLYIRHTLTSPWSSSEERDTAKAAMMEEMEKHNMAPYIRLVCEALGVPLDESKLAEMDAINAKKVAAFDARLKDAVDNLGDTEVRDVLQAKCDHYARIGDLEMCMKTNEECAAKTLATGPKLDLYFQRIRLGIAFSDNDIAAKGITDAHRLMKDGDWERRNRLRVYEGIYHVFIRDFQRGSTLLLDSITTFAAGELLTFQDFVFITVVASLPVLSRPELRKRIVYSPEVNRTGVDDVRELVNSIYDCQYNKVFPNLEVVCQHLRKVVYLSPHVSYFFREMRVLIFTQFLDSYSSVTLESMGAAFGIPVPALDSMLCTLISNERIACKVDRVDGSVETYRGDTTNFDYHRIVKSGDLLLNRIQKLSRLVDM”, for which the “soluble on expression in E. coli” value is on record as “not soluble”.

“MDPNKFREKEISKKEALELFEDNEIIFELFKFADSLRREEVGDIVTYVVNRNINFTNICVGNCRFCAFRANENDKHAYFLDIDEIAKRAVEAKKFGCTEVCIQGGLHPKIDTYYQAEILKAVHEATKPYGDIHIHAFSPMEVYFGAENAGLDIKEALKILKENGLNSMPGTAAEILDDDIRAELCPNKIKTKEWIYIIKEAHKLGIPTTATMMYGHIEEYKHWVNHLFIIKEIQEETNGFTEFVPLSFMHKYAPIYKEGKAKAGATGIEDLKVFAVSRIIFKGLIKNIQASWVKLGKKMVQVALRCGANDVGGTLIEESISRSAGAEHGVYMSVEEIRDMIKRVGLIPKERTTLYKILE”: the “soluble on expression in E. coli” value is “not soluble”.

For the sequence “MDRNEVRHAWDSVSETYAERRDPTGSDAALLEDLLERLPEAPTVLDVGCGDGARTLANLPPRSVGLDFSRAGLDLAAETVPDSRLVQGDMGSLPVTTDSVDAITAYHAVFHVQRDQHPEVYREFARVLRPGGTVLMTLPSGQFETVRRGWMGGSMFFSAPGRRATLDQLADAGFTETETVTATDPLGSDSEFVFATLADALEHHHHHH”, the “soluble on expression in E. coli” value is listed as “soluble”.

Turning to “MDSDEVRKRKEYAERKVKERHAALRKEAEEKRKHTVEHRERVQSVLKREQIALQKRMQQLNEDEERKKVTLAKQHEVSSRIAAITKSPKSFAFGSSTPRTLAYLDNLPKSEQQYDKKLRPLDQGPSQTTSPTSTTSNTTKMGRLSMTPQRAPPASHRPAPAMASMTTSMYVTSSAPSTRQAKSISKPAAVTTKKVGSMMTQSVYTPTSRPATSSRLTMKQPARGASTSAARPNTATPSSSNNRRSMDQRKPPMPRKLPFGKPEAARKSASPVAAQEPTAPVVVVAPVEAIPEVPAVQEEVLTVEEPAAPAREAVVEEAPEAVVEQEEITVAPEAVVAEEQQIAPEATPTVIEEHHNEVTVAPEAPEIQEPSEPATEPIPEPNEPKDEEIQRNEEMFHEDTSESHLESSTNTSLADELISIGIDQSQEILPSKPEILELHYPLVEEQNAVIAPVGAGEGSGVNDLIGVFGNDFINQNQPPPQQQQQQQRLVQFDEDTDSGKASPTSSETSSTTDEVTPRGAIEEEAAAEKITAPRVLPIVRSAEDIARKEKEIRESEERKSRLAAILAKSRGMASPMTNTLPPTADDIKGRCSHLHPLKRLPKRHRMSLEEQMMCSPVSLR”, the “soluble on expression in E. coli” value is listed as “not soluble”.

In the case of “MDSVIQKRIFVGNIFHNADDCYSELLDRFGKFGDCQDFQFEKHNHFAFIDIRFNDEADFNKLRKSFNNVKFKGNILKVDEAKPNWESTWAVQHAKDLKEDIILNAKMKKKNWQHYKKMENVAKSWKDHKEVIAGRMREAPRKRSQLRNITFRINVNGSLKVYKCYKTKLWGYERNKELNDLVYKFTNNFWKNGYNHIVDRLDYSRAVKTVRFKNGLKQLTVSKDENVCSGEMDSDENMSEEEKEKNNVILNDLLKDFDFDKPMTLNDSDEELLTEQRKGEEEEEEEEEKEVNAPEYENVNKTKDQSTLPQEKPEERKEQDEGDGQEDNEFIPTFTKEIGQGTISNTETLRNLFNPNEAEPVSQFKLIEDSDNDIDHAKDVDVNQLEEEVSKSSDTLGLTSAPVPHVSRDKDNKNFLFFPHLQSPFLVGQTQLSKVRAPGRETMLSNWDEEFWANRGNWTRDMRRKMKDALKHRKRKQSKSGLLL”, the “soluble on expression in E. coli” value was “not soluble”.

For “MDSYGYVETLGLVTAIEAADAALKAANVTLMNCYYVKGGIVTIEVAGDVSAVTAAVDAATESAKRLGNFLSSNVIARIDSETKKILISDLGNKEKKQKIENKSVVKDTTIEKKATEKISTEEITEEIINESKNENFDEEQNKEINEKVTEIAEVYEKVENPAEKLDQNNDIQEKIEVFEIEVEKEDDEAEKLKKQYQGMKVIDLKKMVNSCKLGYTWNQIKTMPKKKLIEILIKNNKEEAQWQH”, the “soluble on expression in E. coli” value is on record as “not soluble”.

As to “MDTKVVPKISEKICEKFANIINKKPQKKGKEYKIGVDLGTANVVVAVLNENNEPVAGAMKSAQVVKDGVVVDFVGAKEIVKRMVDFLNEELEGKLRVAACAIPPGTGEGVSKATKYVVEEAGLEVIKVVDEPTAAAKLLEIMDGIVVDIGGGTTGISVLKDGKVVYVADEPTGGTHFTLVLAGHFNISFEEAEKIKLDVQRQKLLTPILKPCMEKVAEIIKRHTFSFDNIDTIYLVGGASALHGLKEVVENTTRKKVIVPQYPIFITPLGIALSCEKG”, the “soluble on expression in E. coli” value is given as “not soluble”.

With “MDTYQNMNFHDNINSNIPKNYNSFYEELKKNLNESDILTIAYEVEVLKNIKKINCDEIGKNWDYSFIDSEYGKSTLVILEVGYHLISPYIENNENKKKKLQLFLLLINSMYFPNPYHNANHGATVCHLSKCLAHITDYDSYLNNTYMICYLIASIAHDVGHPGKTNSYLSETNHILSIRYNDMSILENYHCSITFSILQLIGFDFLINNEDTKLVEKNNYTNMRKFIIELIISTDMKLHFEYVDIFKKRKKSQNFDISDTDAINLGTINIKLADIGHTCLKWKDHAKWTMLVSEEFFSQKRVEELHKNKNIDPLNFSNFGKEDNIDEGMIFNYENIYINYINNINNINTYDYSYIKLNFIHHHDFVKSIPSTQVYFFEIIVMPLIKELQSMEKSKKEITQKVLHNLNINLQTWRLIEKNINLFYNTEKMTGTDYYKNLEKQKLLRGIRLLDIAEEDVISLTKNFKEEIKHG”, the “soluble on expression in E. coli” value is listed as “not soluble”.

As for “MDVFLMIRRHKTTIFTDAKESSTVFELKRIVEGILKRPPDEQRLYKDDQLLDDGKTLGECGFTSQTARPQAPATVGLAFRADDTFEALCIEPFSSPPELPDVMKPQDSGSSANEQAVQ”, the “soluble on expression in E. coli” value was “soluble”.

With “MDWGMQSRLSWIFNPKTGKTVMLAFDHGYFQGPTIGLERIDINIAPLFEHADVLMCTRGILRSVVPPATNKPVVLRASGANSILAELSNEAVALSMDDAVRLNSCAVAAQVYIGSEYEHQSIKNIIQLVDAGMKVGMPTMAVTGVGKDMVRDQRYFSLATRIAAEMGAQIIKTYYVEKGFERIVAGCPVPIVIAGGKKLPERETLEMCWQAIDQGASGVDMGRNIFQSDHPVAMMKAVQAVVHHNETADRAYELYLSEKQ”, the “soluble on expression in E. coli” value was “not soluble”.

Take “MDWSEERTATLKKLWLEGLSASQVARQLGGVSRSAVIGKVHRLGITVRETPVRQRATTARAPSRISVRQRPSRDVATPRVAPRYERIEEDLLPTSGILGLGAHSCRWPIGHPENDDFGFCGRPKASARGSYCEQHSQGAFRRLSGGQALEAWALKGVKEKRIQPRLVLEHHHHHH”: the “soluble on expression in E. coli” value is “not soluble”.

For the sequence “MDYRFGRQYRLLKTDDFSSVFAFRNRRSRDLLQVSRSNGNGLGHPRIGLVVGKKTAKRANERNYMKRVIRDWFRLNKNRLPPQDFVVRVHRKFDRATAKQARAELAQLMFGNPATGCRKQA”, the “soluble on expression in E. coli” value is “not soluble”.

For “MDYSSSLPQSDRSTSTAAGHWVLARAGKRVLRPGGLKLTKRMLSAADMQGKEIVEFAPGLGRTAQLIVTEGVSSYVGVDQDSAAVARVEAIVKPHGGTVINAKAHDTGLSGESAEVVVGEAMLTMQGEKAKAEIVAEAFRLLKPGGYYAIHELGLTPNDIDPELADGLRKQLAQTIRVNARPLTENEWRTVLTNAGFEVEWISFAPMALLSPKRNLADEGFLGVVRIIRNLIRDKALRARVFQMRSTFNKYRDHLTGIAIVAKKPSN”, the “soluble on expression in E. coli” value was “not soluble”.

Regarding “MDYTIVVSATASDAAPLKFLAPYSGCAIGEHFLDNGKHALIIFDDLSKKAANCHVVCRTDEIELDILNRMEEDIKLHPLTWYDIWSSLETKIKVVRARIPKSLSRR”, the “soluble on expression in E. coli” value is given as “not soluble”.

As to “MEDLDFPICILKMNLQCCEDFPSRVKKLLRQVKGVYAITIDPVKGLILVCGTAEPSVLIKAVAKLGQSPQLYAYEKDPATAKTRFRTLLKRYATNKTQDKPSPPAPPVTATTPVETCPAGGETFRGFGYPGPTTMMQMPAFSLPPPRGLPGWLAPPTNPRLKYEEPKVTPRKPPAPYPFDYYENLGFPPSDSLFNYFSDDNPQPCSIM”, the “soluble on expression in E. coli” value is “soluble”.

“MEDLIDGIIFAANYLGSTQLLSDKTPSKNVRMMQAQEAVSRIKMAQKLAKSRKKAPEGESQPMTEVDLFILTQRIKVLNADTQETMMDHPLRTISYIADIGNIVVLMARRRIPRSNSQENVEASHPSQDGKRQYKMICHVFESEDAQLIAQSIGQAFSVAYQEFLRANGINP”: the “soluble on expression in E. coli” value is reported as “soluble”.

On to “MEDLTNVSSLLNMERARDKANEEGLALLQEEIDKMVETTELMTGNIQSLKNKIQILASEVEEEEERVKQMHQINSSGVLSLPELSQKTLKAPTLQKEILALIPNQNALLKDLDILHNSSQMKSMSTFIEEAYKKLDAS”, for which the “soluble on expression in E. coli” value is given as “soluble”.

For “MEDNRVEEDGEVKSDVGTSSDEKASDSEVEKRQRTDSERSGKDKKKKHKKEKKHKKDKKHKKEKKHKREKEVEMENDGPPAKKRTLEEVDTKKDESKKKEAKESSRNNEDELRNPPRRERSKSAERRDRELRERRDAERRDRSLSKERRLIQRKREDNRRDPRAHEGNRRRDRTPERFRNNRDRRDRDGRREDRHRRSPDRRRDSDRKREDGKRKDESKDVEWNLDSDSDDEQKKIEAARKRRIQIIKKIEGHTEENTPRDSSTPRSDTIGDKKTDESEDSSSDSEDDEDDRKLAEAKDLIKSTRFGSEQGSGASTPVSIQSDNDTPTDFFSGLRDKMVHMKDADEHNVDEVLQRGKDEEYREDWHTQLKEQEKREEEEKKKKLEAEAAAEAAKKKKQEEDDTGFDMFADNEELPQDSTTIDGHSGAVHDTLKDNWDDVEGYYRVRIGELLDTRYRVVGFTGAGVFGNVCRCNDQTKGNTVAVKIIRNNEVMYKTGLRELEVLRKLNEADKEDKYHCLRLFRTFKHHNHLCLVFENLSMNLRELLKKYGQKDGLHLKAVRSYAQQLLLALRLLKKLEFVHADIKPDNILVNESKLTLKLCDFGSAGRVNEQELAPYLVSRFYRAPEIMLGVRHDYAIDLWSVAVTLYEVYTGKIMFPGRTNNHMLKLFTDVKGKYPNKLVRKSQFKDTHFDVNCNLLYQEVDKVTERNKITVLANLKPTRDLESELIAGQRLSRDQMDQIQAFRTLLDGMLILDPSKRTTCNEALKHPFFTIPIK”, the “soluble on expression in E. coli” value was “soluble”.
